Drawing on patent CN113546252A, this text covers 促LDL内吞 (HepG2细胞LDL摄取法) EC50 for two substances.

This assay addresses 人PCSK9-D347Y (human) (UniProt Q8NBP7). Description: cell-based or functional assay.

Substance Evolocumab (antibody) registered a 促LDL内吞 (HepG2细胞LDL摄取法) EC50 of 0.151 µg/mL.

The substance JS002 (antibody) registered a 促LDL内吞 (HepG2细胞LDL摄取法) EC50 of 0.0927 µg/mL.
